Test results from the supplement of paper PMC10126150.
± gives the standard deviation of the averaged measurements.

Test system: ATP
Assay: switch fluorescence ratio, 500 uM ATP over buffer (Cy3 cluster intensity, sum of 5 cycles each) (fold (ratio)); higher = stronger signal-on switching upon ATP binding; sequences stand for … in TCGTCGGCAGCGTCAGATGTGTATAAGAGACAGTTTTTTTTTTTTTTTTTTTTTTTTT…TC
Conditions: aptamer strand: ATP DNA aptamer (quencher-CACCTGGGGGAGTATTGCGGAGGAAGG + anchor), 100 nM annealed; ATP concentration: 500 uM
Procedure, shortened: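 The quencher-labelled ATP aptamer, at 100 nM, was annealed to Cy3-labelled switching-strand clusters on a modified Illumina MiSeq flow-cell. The clusters were imaged in selection buffer, then after 15 min with 500 uM ATP at 22 °C, and this buffer/ATP cycle ran five times with NaOH stripping and re-annealing between runs. Per-cluster fluorescence ratios, summed target-cycle over summed buffer-cycle Cy3 intensity, were averaged per switch-domain sequence. Clusters outside 100-1000 RFU were excluded.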
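Note: ATP exposure 15 min at 22 °C before imaging.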

Row | Sequence | switch fluorescence ratio
1 | CACATTGTCC | 0.9773 ± 0.0025
2 | CACCGGTTCT | 1.03 ± 0.011
3 | CACCTGGGGG | 1.13 ± 0.11
4 | CACGACTTTT | 1.05 ± 0.04
5 | CACGAGTTGG | 1.014 ± 0.0049
6 | CACGATATTC | 1.18 ± 0.027
7 | CACGCGGAGG | 1.03 ± 0.039
8 | CACGGCCGAA | 0.973 ± 0.013
9 | CACGGGCGGG | 1.05 ± 0.063
10 | CACGGGCTTC | 1.016 ± 0.0084
11 | CACGGGGAAC | 1.28 ± 0.32
12 | CACGGGGGGC | 1.02 ± 0.054
13 | CACGGGGGGT | 1.02 ± 0.052
14 | CACGGGGTTG | 0.982 ± 0.069
15 | CACGGTACGT | 1.06 ± 0.022
16 | CACGTAATTA | 1.25 ± 0.048
17 | CACGTATTCA | 1.15 ± 0.045
18 | CACGTTTGTT | 1.027 ± 0.004
19 | CACTAAAGAT | 1.004 ± 0.0052
20 | CACTAATAAT | 1.033 ± 0.0029
21 | CACTAATTAA | 1.004 ± 0.009
22 | CACTACGAAT | 1.051 ± 0.007
23 | CACTAGAGTG | 1.021 ± 0.0063
24 | CACTAGATGG | 0.992 ± 0.02
25 | CACTAGTAAA | 0.9984 ± 0.0094

Row | Sequence | switch fluorescence ratio
26 | CACTATAATG | 1.05 ± 0.042
27 | CACTCATTTT | 0.98 ± 0.033
28 | CACTCCTGTG | 1.01 ± 0.04
29 | CACTCGCCTC | 1.134 ± 0.0068
30 | CACTCTAGGC | 1.07 ± 0.02
31 | CACTGGACGG | 1.28 ± 0.049
32 | CACTGGCATG | 0.998 ± 0.029
33 | CACTGGGGGA | 0.9949 ± 0.0013
34 | CACTGTGTTG | 0.987 ± 0.035
35 | CACTTACGTT | 1.347 ± 0.012
36 | CACTTAGGGG | 1.01 ± 0.022
37 | CACTTAGGTG | 1.19 ± 0.032
38 | CACTTGGGCG | 1.033 ± 0.0077
39 | CACTTTGGTT | 1.02 ± 0.011
40 | CACTTTTTTT | 1.01 ± 0.063
41 | CAGAAAATGG | 1 ± 0.012
42 | CAGAAATATT | 1.01 ± 0.075
43 | CAGAAATTGG | 1.013 ± 0.01
44 | CAGAACGCTG | 1.35 ± 0.12
45 | CAGAACGGCA | 1.095 ± 0.0092
46 | CAGAACGTTG | 0.983 ± 0.016
47 | CAGAACTGCG | 1.01 ± 0.015
48 | CAGAAGCGAT | 1.33 ± 0.025
49 | CAGACAGTTT | 0.993 ± 0.013
50 | CAGACCTCGT | 1 ± 0.013

Row | Sequence | switch fluorescence ratio
51 | CAGACTGGGG | 1 ± 0.039
52 | CAGAGAGCGG | 0.9815 ± 0.0031
53 | CAGAGAGCGT | 1.008 ± 0.0068
54 | CAGAGAGGTG | 1.07 ± 0.041
55 | CAGAGAGTTT | 0.9851 ± 0.0044
56 | CAGAGCGGGG | 0.998 ± 0.023
57 | CAGAGGAACT | 0.999 ± 0.035
58 | CAGAGGAGGC | 0.987 ± 0.016
59 | CAGAGGCCAG | 0.993 ± 0.025
60 | CAGAGGGAAT | 1.05 ± 0.032
61 | CAGAGGGCAG | 1.02 ± 0.047
62 | CAGAGGGTGT | 1.12 ± 0.032
63 | CAGAGGTCGT | 1.013 ± 0.0081
64 | CAGAGTTCGG | 1.03 ± 0.015
65 | CAGAGTTTGA | 0.969 ± 0.0047
66 | CAGATAGGTT | 1.09 ± 0.14
67 | CAGATCAAGT | 1.016 ± 0.0034
68 | CAGATCACGA | 1.01 ± 0.017
69 | CAGATGGGAG | 1.02 ± 0.014
70 | CAGATGGTGT | 1.02 ± 0.015
71 | CAGATTCGAG | 1.008 ± 0.01
72 | CAGATTGATG | 0.983 ± 0.043
73 | CAGATTGGGG | 1 ± 0.025
74 | CAGATTGTGT | 1 ± 0.039
75 | CAGCAAGGGA | 1.12 ± 0.025

Row | Sequence | switch fluorescence ratio
76 | CAGCACAGGG | 1.18 ± 0.017
77 | CAGCACGATA | 1.1615 ± 0.00014
78 | CAGCAGCTGG | 1.05 ± 0.034
79 | CAGCATAGAT | 1.08 ± 0.023
80 | CAGCCCTATA | 1.04 ± 0.047
81 | CAGCCGGATG | 1.02 ± 0.028
82 | CAGCCTGGGC | 0.984 ± 0.016
83 | CAGCGCATTA | 2.01 ± 0.11
84 | CAGCGGGACG | 1.02 ± 0.035
85 | CAGCGGGTCT | 1.04 ± 0.054
86 | CAGCGTATTG | 1.04 ± 0.037
87 | CAGCTCGGTC | 0.9687 ± 0.0082
88 | CAGCTGCTGC | 1.014 ± 0.0051
89 | CAGCTGGGAG | 1.03 ± 0.011
90 | CAGCTTCCCC | 1.29 ± 0.42
91 | CAGGAAAATT | 1 ± 0.032
92 | CAGGAACTTA | 0.9843 ± 0.0052
93 | CAGGACACCT | 1.17 ± 0.034
94 | CAGGACACTA | 1.03 ± 0.026
95 | CAGGACGGGT | 1.02 ± 0.03
96 | CAGGACTGCA | 1.028 ± 0.0039
97 | CAGGACTGGG | 1.01 ± 0.0056
98 | CAGGATAGGC | 1.003 ± 0.0044
99 | CAGGATGAAT | 0.999 ± 0.033
100 | CAGGATGTGC | 0.992 ± 0.032
